Experimental data: article PMC9561264, “Direct hOGG1-Myc interactions inhibit hOGG1 catalytic activity and recruit Myc to its promoters under oxidative stress”

B1: oxoG 48 bp (EMSA/FP) (dsDNA)
DNA 1: GCATGCCTCGAGTCTAGAGGTACCAGATCTGATCCTCTAGAGTCGACC
DNA 2: GGTCGACTCTAGAGGATCAGATCTGGTACCTCTAGACTCGAGGCATGC
modifications: 8-oxoguanine at position 10 of strand 1 (written G)
B2: undamaged (nsp) 48 bp (dsDNA)
DNA 1: B1 DNA 1
DNA 2: B1 DNA 2

What was measured:
Conditions in all cases: protein: recombinant; tags: N-terminal His6 (removed by protease where required); label: 5' AF647 (FP) or Cy3 (EMSA) on bottom strand; blunt
hOGG1 wild type [1] = target: T1, hOGG1 wild type (human, UniProt O15527 1-345); test: fluorescence polarisation; oxidising, pre-oxidised hOGG1; FP at 25°C with 5 nM labelled DNA; EMSA room temp 30 min, 15% native PAGE 0.5x TBE 4°C; interaction buffer 20 mM Tris-HCl pH 7.6, 200 mM NaCl (Fig. S12); reducing (5 mM DTT in EMSA) or oxidising (pre-oxidised hOGG1)
T1 sequence (O15527 whole entry): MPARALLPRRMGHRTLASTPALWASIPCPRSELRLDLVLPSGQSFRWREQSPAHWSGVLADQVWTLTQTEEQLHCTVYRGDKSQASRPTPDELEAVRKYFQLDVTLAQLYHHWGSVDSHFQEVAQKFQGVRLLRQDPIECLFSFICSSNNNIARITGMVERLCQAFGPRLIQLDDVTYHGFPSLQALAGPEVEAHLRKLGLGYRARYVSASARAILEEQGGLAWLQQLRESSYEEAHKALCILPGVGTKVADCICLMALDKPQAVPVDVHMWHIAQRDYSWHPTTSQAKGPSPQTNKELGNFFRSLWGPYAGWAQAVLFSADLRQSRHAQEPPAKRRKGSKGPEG

hOGG1 wild type [2] = target: T1, hOGG1 wild type; test: fluorescence polarisation; reducing; FP at 25°C with 5 nM labelled DNA; EMSA room temp 30 min, 15% native PAGE 0.5x TBE 4°C; interaction buffer 20 mM Tris-HCl pH 7.6, 200 mM NaCl (Fig. S12); reducing (5 mM DTT in EMSA) or oxidising (pre-oxidised hOGG1)
hOGG1 wild type [3] = target: T1, hOGG1 wild type; test: fluorescence polarisation; oxidising; FP at 25°C with 5 nM labelled DNA; EMSA room temp 30 min, 15% native PAGE 0.5x TBE 4°C; interaction buffer 20 mM Tris-HCl pH 7.6, 200 mM NaCl (Fig. S12); reducing (5 mM DTT in EMSA) or oxidising (pre-oxidised hOGG1)

Binder | Kd (hOGG1 wild type [1]) | Kd (hOGG1 wild type [2]) | Kd (hOGG1 wild type [3])
B1 | 140 ± 9 nM | 66 ± 5 nM | 
B2 |  | 252 ± 43 nM | 250 ± 18 nM
